Test results: patent publication US20240279281A1, “Peptide Inhibitors of Interleukin-23 Receptor” (Janssen Pharmaceutica NV, priority 2023, published 2024)
Positions of bridges follow the written chain, without caps; N, C: chain ends. Non-standard residues stand in square brackets, D forms with d. No end group written: not given here. Trp(7-Me) = Cc1cccc2c(C[C@H](N)C(=O)O)c[nH]c12; d(hLys(Me3)) = C[N+](C)(C)CCCCC[C@@H](N)C(=O)O; 3Pal = N[C@@H](Cc1cccnc1)C(=O)O; Lipidated = not defined here; Pen = CC(C)(S)[C@H](N)C(=O)O; lipid = not defined here; Thp = NC1(C(=O)O)CCOCC1; Sar = CNCC(=O)O

T1: interleukin-23 receptor (IL-23R), Q5VWK5
T1 chain: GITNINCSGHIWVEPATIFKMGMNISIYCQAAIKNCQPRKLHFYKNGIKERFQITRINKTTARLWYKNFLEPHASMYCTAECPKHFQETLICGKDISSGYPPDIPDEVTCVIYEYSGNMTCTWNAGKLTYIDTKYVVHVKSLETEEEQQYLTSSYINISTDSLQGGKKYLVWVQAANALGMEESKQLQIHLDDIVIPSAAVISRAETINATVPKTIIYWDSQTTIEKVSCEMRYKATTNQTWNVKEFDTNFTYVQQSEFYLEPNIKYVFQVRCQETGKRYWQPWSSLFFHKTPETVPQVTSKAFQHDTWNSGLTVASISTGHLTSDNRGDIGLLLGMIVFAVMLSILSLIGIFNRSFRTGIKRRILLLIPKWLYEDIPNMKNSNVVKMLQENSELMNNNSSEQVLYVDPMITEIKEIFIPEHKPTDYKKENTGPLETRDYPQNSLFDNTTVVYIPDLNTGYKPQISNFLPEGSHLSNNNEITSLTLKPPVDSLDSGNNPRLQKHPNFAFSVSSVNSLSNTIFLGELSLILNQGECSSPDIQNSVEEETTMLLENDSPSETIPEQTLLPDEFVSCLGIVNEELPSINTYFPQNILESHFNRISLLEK

B1: SEQ ID NO: 169 (peptide)
peptide: [Pen]ET[Trp(7-Me)]K(Ac)[Pen][2‑amino‑3‑(4-(2-aminoethoxy)phenyl)propanoic acid][2‑amino‑3‑(6-hydroxynaphthalen-2-yl)propanoic acid][Thp]K(Ac)N[3Pal][Sar]K(lipid)
modifications: disulfide 1-6 (inferred); ends not checked; also: K14 lipidated, lipid not given here
B2: SEQ ID NO: 166 (peptide)
peptide: [(R)‑3‑carboxy‑2‑(4-(((R)-5-carboxy-5-hydrazineylpentyl)amino)-4-oxobutanamido)‑N,N,N‑trimethylpropan‑1‑aminium][Pen]NT[Trp(7-Me)]K(Ac)[Pen][2‑amino‑3‑(4-(2-aminoethoxy)phenyl)propanoic acid][2‑amino‑3‑(6-hydroxynaphthalen-2-yl)propanoic acid][Thp]EN[3Pal][Sar]K(lipid)
modifications: disulfide 2-7 (inferred); ends not checked; also: K15: lipidated lysine, lipid not given here
B3: SEQ ID NO: 182 (peptide)
peptide: [Pen]NT[Trp(7-Me)]K(Ac)[Pen][2‑amino‑3‑(4-(2-aminoethoxy)phenyl)propanoic acid][2‑amino‑3‑(6-hydroxynaphthalen-2-yl)propanoic acid][Thp]K(Ac)N[3Pal][Sar]K(lipid)
modifications: disulfide 1-6 (inferred); ends not checked; also: K14 lipidated lysine, lipid not given here
B4: SEQ ID NO: 181 (peptide)
peptide: [d(hLys(Me3))][Pen]NT[Trp(7-Me)]K(Ac)[Pen][2‑amino‑3‑(4-(2-aminoethoxy)phenyl)propanoic acid][2‑amino‑3‑(6-hydroxynaphthalen-2-yl)propanoic acid][Thp]K(Ac)N[3Pal][Sar]K(lipid)
modifications: disulfide 2-7 (inferred); ends not checked; also: K15 lipidated lysine, lipid not given here
B5: SEQ ID NO: 185 (peptide)
peptide: [Pen]NT[Trp(7-Me)]K(Ac)[Pen][2‑amino‑3‑(4-(2-aminoethoxy)phenyl)propanoic acid][2‑amino‑3‑(6-hydroxynaphthalen-2-yl)propanoic acid][Thp]K(Lipidated)N[3Pal][Sar]
modifications: disulfide 1-6 (inferred); ends not checked; also: K10 lipidated lysine, lipid not given here
B6: SEQ ID NO: 184 (peptide)
peptide: [d(hLys(Me3))][Pen]NT[Trp(7-Me)]K(Ac)[Pen][2‑amino‑3‑(4-(2-aminoethoxy)phenyl)propanoic acid][2‑amino‑3‑(6-hydroxynaphthalen-2-yl)propanoic acid][Thp]K(Lipidated)N[3Pal][Sar]
modifications: disulfide 2-7 (inferred); ends not checked; also: K11 lipidated lysine, lipid not given here
B7: SEQ ID NO: 170 (peptide)
peptide: [Pen]ET[Trp(7-Me)]K(Ac)[Pen][2‑amino‑3‑(4-(2-aminoethoxy)phenyl)propanoic acid][2‑amino‑3‑(6-hydroxynaphthalen-2-yl)propanoic acid][Thp]K(Ac)N[3Pal][Sar]K(lipid)
modifications: disulfide 1-6 (inferred); ends not checked; also: K14 lipidated, lipid not given here

Biological target: T1, interleukin-23 receptor (IL-23R), Q5VWK5
Test: cell-based or functional assay

PBMC pSTAT3 IC50	Binder
< 1 nM	B1
< 1 nM	B2
< 1 nM	B3
< 1 nM	B4
< 1 nM	B5
< 1 nM	B6
< 1 nM	B7
